Reference: patent publication US20190055322A1 (Ablynx, published 2019)

B1: Nanobody 285 (13F07-40GS-2B02) (VHH)
chain: EVQLVESGGGLVQAGGSLRLSCAASGNTFSTNPMYWYRQAEGKQRELVASISSRGITNYADSVRGRFSISRDNTKDTVYLQMNSLKPEDTAVYYCRLASLSSGTVYWGKGTLVTVSSGGGGSGGGGSGGGGSGGGGSGGGGSGGGGSGGGGSGGGGSEVQLVESGGGLVQPGDSLRLSCAASGRILSINNMVWYRQAPGKQRELVAHITSSGSTGYADSVKGRFTISRDNAKNTFYLQMTNLNPEDTAVYYCNCWVSSDSNAPLKNYWGQGTLVTVSS
B2: Nanobody 335 (5H01-40GS-1E11) (VHH)
chain: EVQLVESGGGLVQPGGSLRLSCAASGSTLDYYAIGWFRQAPGKEREGVSCTSNSGSTYYGGSVKGRFTASRDNAKNTVYLQMNSLRPEDTAVYYCVATIGCATLGGTLDVQRYYYRGQGTLVTVSSGGGGSGGGGSGGGGSGGGGSGGGGSGGGGSGGGGSGGGGSEVQLVESGGGLVQPGGSLRLSCAASGSTRSVNPMAWFRQAPGRQREWVATISRSGYATYADSVKGRFTISGDNAKSSVYLQMNSLKPEDTAVYYCVTGTYWGQGTLVTVSS
B3: Nanobody 257 (13F07-40GS-2B10) (VHH)
chain: EVQLVESGGGLVQAGGSLRLSCAASGNTFSTNPMYWYRQAEGKQRELVASISSRGITNYADSVRGRFSISRDNTKDTVYLQMNSLKPEDTAVYYCRLASLSSGTVYWGKGTLVTVSSGGGGSGGGGSGGGGSGGGGSGGGGSGGGGSGGGGSGGGGSEVQLVESGGGLVQPGGSLRLSCAASGSIFSINNMGWYRQAPGKQRELVTVVTSNLITTYADSVKGRFTISRDNAKNTVYLQMNSLKPEDTAVYYCNAWARSVGSVPYSQFWGQGTLVTVSS
B4: Nanobody 271 (7C10-40GS-14E10) (VHH)
chain: EVQLVESGGGLVQAGGSLRLSCTASGRTLSSYTMGWFRQAPGTEREFVAAMTRSGFNTYYADSVKGRFTISRDSTENTMALQMSSLKPEDTAVYYCTAGRGLTSYRADYWGQGTLVTVSSGGGGSGGGGSGGGGSGGGGSGGGGSGGGGSGGGGSGGGGSEVQLVESGGGLVQPGGSLRLSCAASGRIFSINTMGWYRQAPGKQRELVAGVTINAITNYADSVKGRFTISRDNAKNTVWLQMNSLKPEDTAVYYCHAWARSSGSAPYSQNWGQGTLVTVSS
B5: Fab 13.37 (Fab, V domains shown)
VH: QVQLVESGGGVVQPGRSLRLSCAASGFTFSSYPLHWVRQAPGKGLEWVSFISYDGSEKYYASSVKGRFTISRDNSENTLYLQMNSLRPEDTAVYYCARNRGDIYYDFTYAMDIWGQGTMVTVSS
VL: DIQMTQSPSSLSASVGDRVTITCRASQSISRWVAWYQQRPGKAPNLLIYDASSLKSGVPSRFSGSGSGTEFTLTISSLQPEDIATYYCQQFWGTPYTFGQGTKLEIKR
B6: Nanobody 259 (1E11-40GS-5H01) (VHH)
chain: EVQLVESGGGLVQPGGSLRLSCAASGSTRSVNPMAWFRQAPGRQREWVATISRSGYATYADSVKGRFTISGDNAKSSVYLQMNSLKPEDTAVYYCVTGTYWGQGTLVTVSSGGGGSGGGGSGGGGSGGGGSGGGGSGGGGSGGGGSGGGGSEVQLVESGGGLVQPGGSLRLSCAASGSTLDYYAIGWFRQAPGKEREGVSCTSNSGSTYYGGSVKGRFTASRDNAKNTVYLQMNSLRPEDTAVYYCVATIGCATLGGTLDVQRYYYRGQGTLVTVSS
B7: Nanobody 275 (2G09-40GS-5H01) (VHH)
chain: EVQLVESGGGLVQPGGSLRLSCAASGSFGDNYELYAMTWFRQAPGERRDFVASVTGDGSTSYADSVKDRFTISRDNAKKLMYLQMNSLKPEDTAVYYCRLLNYWGQGTLVTVSSGGGGSGGGGSGGGGSGGGGSGGGGSGGGGSGGGGSGGGGSEVQLVESGGGLVQPGGSLRLSCAASGSTLDYYAIGWFRQAPGKEREGVSCTSNSGSTYYGGSVKGRFTASRDNAKNTVYLQMNSLRPEDTAVYYCVATIGCATLGGTLDVQRYYYRGQGTLVTVSS
B8: Nanobody 277 (5H01-40GS-11B09) (VHH)
chain: EVQLVESGGGLVQPGGSLRLSCAASGSTLDYYAIGWFRQAPGKEREGVSCTSNSGSTYYGGSVKGRFTASRDNAKNTVYLQMNSLRPEDTAVYYCVATIGCATLGGTLDVQRYYYRGQGTLVTVSSGGGGSGGGGSGGGGSGGGGSGGGGSGGGGSGGGGSGGGGSEVQLVESGGGLVQAGGSLRLSCAASRLTFNHYNMGWFRQAPGKERERVAEVTWSGDKIYYVDSVKGRFTISRDNTPNPVYLYLQMNSLKPEDTAVYYCATAPRGLPYANGYWGQGTLVTVSS
B9: Nanobody 319 (13F07-40GS-6B05) (VHH)
chain: EVQLVESGGGLVQAGGSLRLSCAASGNTFSTNPMYWYRQAEGKQRELVASISSRGITNYADSVRGRFSISRDNTKDTVYLQMNSLKPEDTAVYYCRLASLSSGTVYWGKGTLVTVSSGGGGSGGGGSGGGGSGGGGSGGGGSGGGGSGGGGSGGGGSEVQLVESGGGLVQPGGSLRLSCAASGSIFSINTMGWYRQAPGKQRELVSTITSNLVPHYADSVQGRFTISRDNARNTVYLQMNSLKPQDTAHYYCNAWARSSGATPYTNYWGQGTLVTVSS
B10: Nanobody 256 (13F07-40GS-5H01) (VHH)
chain: EVQLVESGGGLVQAGGSLRLSCAASGNTFSTNPMYWYRQAEGKQRELVASISSRGITNYADSVRGRFSISRDNTKDTVYLQMNSLKPEDTAVYYCRLASLSSGTVYWGKGTLVTVSSGGGGSGGGGSGGGGSGGGGSGGGGSGGGGSGGGGSGGGGSEVQLVESGGGLVQPGGSLRLSCAASGSTLDYYAIGWFRQAPGKEREGVSCTSNSGSTYYGGSVKGRFTASRDNAKNTVYLQMNSLRPEDTAVYYCVATIGCATLGGTLDVQRYYYRGQGTLVTVSS
B11: Nanobody 261 (5H01-40GS-2B10) (VHH)
chain: EVQLVESGGGLVQPGGSLRLSCAASGSTLDYYAIGWFRQAPGKEREGVSCTSNSGSTYYGGSVKGRFTASRDNAKNTVYLQMNSLRPEDTAVYYCVATIGCATLGGTLDVQRYYYRGQGTLVTVSSGGGGSGGGGSGGGGSGGGGSGGGGSGGGGSGGGGSGGGGSEVQLVESGGGLVQPGGSLRLSCAASGSIFSINNMGWYRQAPGKQRELVTVVTSNLITTYADSVKGRFTISRDNAKNTVYLQMNSLKPEDTAVYYCNAWARSVGSVPYSQFWGQGTLVTVSS
B12: Nanobody 1E11 (VHH)
VHH: EVQLVESGGGLVQPGGSLRLSCAASGSTRSVNPMAWFRQAPGRQREWVATISRSGYATYADSVKGRFTISGDNAKSSVYLQMNSLKPEDTAVYYCVTGTYWGQGTLVTVSS
notes: also called 01E11
Throughout, for cytotox assay (% inhibition), P3X63, PA103: test concentration or dose not given here.

These binders were tested against T1, PcrV of P. aeruginosa strain PA103 (on TTSS-induced bacteria) (Pseudomonas aeruginosa strain PA103) (assay: cell-based or functional assay).
B1 was tested, and the “Efficacy (%), P3X63 cytotoxicity, MOI 12” value was 100% and the “IC50 value (M), P3X63 cytotoxicity, MOI 12” value (“IC50 value (M)” below) was 6.1e-11 M. B2 was tested, and the “Efficacy (%), P3X63 cytotoxicity, MOI 12” value was 100% and the “IC50 value (M)” value was 6.4e-11 M. For B3, the “Efficacy (%), P3X63 cytotoxicity, MOI 12” value was 100% and the “IC50 value (M)” value was 1.3e-10 M. With B4 the “Efficacy (%), P3X63 cytotoxicity, MOI 12” value was 100% and the “IC50 value (M)” value was 5.9e-10 M. For B5, the “Efficacy (%), P3X63 cytotoxicity, MOI 12” value was 100% and the “IC50 value (M)” value was 5.4e-10 M. In the case of B6, the “Efficacy (%), P3X63 cytotoxicity, MOI 12” value is reported as 100% and the “IC50 value (M)” value is reported as 3.9e-11 M. For B7, the “Efficacy (%), P3X63 cytotoxicity, MOI 12” value was 100% and the “IC50 value (M)” value was 3.7e-09 M. B8 was tested, and the “Efficacy (%), P3X63 cytotoxicity, MOI 12” value was 100% and the “IC50 value (M)” value was 1.3e-11 M. In the case of B9, the “Efficacy (%), P3X63 cytotoxicity, MOI 12” value is reported as 100% and the “IC50 value (M)” value is reported as 8.1e-11 M. With B10 the “Efficacy (%), P3X63 cytotoxicity, MOI 12” value was 100% and the “IC50 value (M)” value was 5.4e-11 M. For B11, the “Efficacy (%), P3X63 cytotoxicity, MOI 12” value was 100% and the “IC50 value (M)” value was 4.8e-10 M.

The binders below were run against T2, recombinant PcrV protein (rPcrV), strain PAO1, amino acid residues 1-294, C-terminal His6 (Pseudomonas aeruginosa strain PAO1) (assay: ELISA, periplasmic extract on biotinylated rPcrV).
With B12 the “binding ELISA (OD 450 nm)” value was 2.56 OD 450 nm.

Molecular target: T1, PcrV of P. aeruginosa strain PA103 (on …)
Assay: cell-based or functional assay
Remark: another data set of the same source
With B12 the “cytotox assay (% inhibition), P3X63, PA103” value was 33%.

Molecular target: T1, PcrV of P. aeruginosa strain PA103 (on …)
Assay: cell-based or functional assay
Remark: another data set of the same source
For B1, the “Ratio (IC50 Fab 13.37/IC50 Nanobody), A549 cytotoxicity” value (from here on “Ratio (IC50 Fab 13.37/IC50 Nanobody)”) was 1 fold. In the case of B2, the “Ratio (IC50 Fab 13.37/IC50 Nanobody)” value is reported as 1 fold. B3 was tested, and the “Ratio (IC50 Fab 13.37/IC50 Nanobody)” value was 10 fold. B4 was tested, and the “Ratio (IC50 Fab 13.37/IC50 Nanobody)” value was 1 fold. With B6 the “Ratio (IC50 Fab 13.37/IC50 Nanobody)” value was 9 fold. In the case of B7, the “Ratio (IC50 Fab 13.37/IC50 Nanobody)” value is reported as 1 fold. B8 was tested, and the “Ratio (IC50 Fab 13.37/IC50 Nanobody)” value was 8 fold. With B9 the “Ratio (IC50 Fab 13.37/IC50 Nanobody)” value was 2 fold. B10 was tested, and the “Ratio (IC50 Fab 13.37/IC50 Nanobody)” value was 21 fold. For B11, the “Ratio (IC50 Fab 13.37/IC50 Nanobody)” value was 1 fold.

What follows are binders tested against Full length PcrV (aa 1-294), C-terminal c-myc and His6 tags (Pseudomonas aeruginosa strain PAO1) (assay: ELISA, binder coated).
B5: binds. B12: binds.

Molecular target: T1, PcrV of P. aeruginosa strain PA103 (on …)
Assay: cell-based or functional assay
Remark: another data set of the same source
In the case of B1, the “% inhibition in P3X63 cytotoxicity assay, extract 1/150” value (shortened to “% inhibition … extract 1/150”) is reported as 59%. With B2 the “% inhibition … extract 1/150” value was 46%. In the case of B3, the “% inhibition … extract 1/150” value is reported as 80%. With B4 the “% inhibition … extract 1/150” value was 43%. With B6 the “% inhibition … extract 1/150” value was 52%. For B7, the “% inhibition … extract 1/150” value was 66%. B8 was tested, and the “% inhibition … extract 1/150” value was 85%. With B9 the “% inhibition … extract 1/150” value was 46%. B10 was tested, and the “% inhibition … extract 1/150” value was 65%. In the case of B11, the “% inhibition … extract 1/150” value is reported as 42%.

Molecular target: T1, PcrV of P. aeruginosa strain PA103 (on …)
Assay: cell-based or functional assay
Remark: another data set of the same source
For B5, the “% inhibition, P3X63 cytotoxicity assay, MOI 1.5” value was 100%, the “% inhibition, P3X63 cytotoxicity assay, MOI 3” value was 100% and the “% inhibition, P3X63 cytotoxicity assay, MOI 4” value was 100%. The “IC50 (nM), P3X63 cytotoxicity assay, MOI 1.5” value was 1 nM, the “IC50 (nM), P3X63 cytotoxicity assay, MOI 3” value was 1 nM and the “IC50 (nM), P3X63 cytotoxicity assay, MOI 4” value was 8 nM. B12 was tested, and the “% inhibition, P3X63 cytotoxicity assay, MOI 4” value was 58% and the “IC50 (nM), P3X63 cytotoxicity assay, MOI 4” value was 23 nM.

These binders were tested against T2, recombinant PcrV protein (rPcrV), … (assay: SPR ProteOn, periplasmic extract on immobilised rPcrV).
B12 was tested, and the koff was 0.00035 s⁻¹.
